Test results published in FireProtDB (doi:10.1021/bi991757+).

Details: Enterobacteria phage 434, pH 6, Urea, CD, KH2PO4 25 mM, KCl 100 mM, reversible: yes, whole UniProt chain shown

B1: Regulatory protein cro wild type, P03036 (protein)
chain: MQTLSERLKKRRIALKMTQTELATKAGVKQQSIQLIEAGVTKRPRFLFEIAMALNCDPVWLQYGTKRGKAA
denaturant m value (5 °C): 0.99 kcal/mol/M | denaturant midpoint (higher = more stable) (5 °C): 3.32 M | unfolding free energy (5 °C): 3.28 kcal/mol | denaturant m value (15 °C): 0.91 kcal/mol/M | denaturant midpoint (higher = more stable) (15 °C): 3.56 M | unfolding free energy (15 °C): 3.23 kcal/mol | denaturant m value (20 °C): 1.01 kcal/mol/M | denaturant midpoint (higher = more stable) (20 °C): 3.42 M | unfolding free energy (20 °C): 3.44 kcal/mol | denaturant m value (25 °C): 1 kcal/mol/M | denaturant midpoint (higher = more stable) (25 °C): 3.07 M | unfolding free energy (25 °C): 3.05 kcal/mol
